Measured values reported in IntAct's records for PubMed 19665976.

B1: Atlastin-1 (Homo sapiens), Q8WXF7 (parent)
chain: MAKNRRDRNSWGGFSEKTYEWSSEEEEPVKKAGPVQVLIVKDDHSFELDETALNRILLSEAVRDKEVVAVSVAGAFRKGKSFLMDFMLRYMYNQESVDWVGDYNEPLTGFSWRGGSERETTGIQIWSEIFLINKPDGKKVAVLLMDTQGTFDSQSTLRDSATVFALSTMISSIQVYNLSQNVQEDDLQHLQLFTEYGRLAMEETFLKPFQSLIFLVRDWSFPYEFSYGADGGAKFLEKRLKVSGNQHEELQNVRKHIHSCFTNISCFLLPHPGLKVATNPNFDGKLKEIDDEFIKNLKILIPWLLSPESLDIKEINGNKITCRGLVEYFKAYIKIYQGEELPHPKSMLQATAEANNLAAVATAKDTYNKKMEEICGGDKPFLAPNDLQTKHLQLKEESVKLFRGVKKMGGEEFSRRYLQQLESEIDELYIQYIKHNDSKNIFHAARTPATLFVVIFITYVIAGVTGFIGLDIIASLCNMIMGLTLITLCTWAYIRYSGEYRELGAVIDQVAAALWDQGSTNEALYKLYSAAATHRHLYHQAFPTPKSESTEQSEKKKM
partner: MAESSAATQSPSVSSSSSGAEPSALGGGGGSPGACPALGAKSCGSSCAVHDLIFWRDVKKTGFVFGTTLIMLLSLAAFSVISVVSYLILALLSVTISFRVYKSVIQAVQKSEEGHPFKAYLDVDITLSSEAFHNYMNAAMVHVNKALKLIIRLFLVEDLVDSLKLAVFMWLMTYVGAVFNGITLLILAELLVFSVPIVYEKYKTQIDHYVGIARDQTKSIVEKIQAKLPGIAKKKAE

Variants of: B1
Conditions: with Rtn3, Q9ES97-3

| Variant | effect of a mutation on the interaction |
| --- | --- |
| K80A | decreasing interaction |
